Reference: US20210188909A1 (SANFORD BURNHAM PREBYS MEDICAL DISCOVERY INSTITUTE, published 2021)
Ends that are not written are not given here.

T1: recombinant 6x-His-tagged p32 protein (gC1qR/p32) (UniProt Q07021 74-282)
T1 construct: Predominantly (>97%) a trimer by sedimentation velocity; also called gC1q/p32 receptor; recombinant p32
T1 sequence (looked up): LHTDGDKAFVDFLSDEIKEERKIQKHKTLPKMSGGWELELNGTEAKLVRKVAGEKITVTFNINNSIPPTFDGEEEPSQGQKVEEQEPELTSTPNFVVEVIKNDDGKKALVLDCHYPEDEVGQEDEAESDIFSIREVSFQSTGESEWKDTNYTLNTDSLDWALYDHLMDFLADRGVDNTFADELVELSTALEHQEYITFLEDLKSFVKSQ

T2: ligand-binding b1b2 domain of the cell and tissue penetration receptor NRP-1 (UniProt O14786 273-586, limits assumed)
T2 construct: domain: b1b2; Coated on magnetic beads; also called NRP-1 b1b2; NRP-1 b1b2 domain
T2 sequence (looked up): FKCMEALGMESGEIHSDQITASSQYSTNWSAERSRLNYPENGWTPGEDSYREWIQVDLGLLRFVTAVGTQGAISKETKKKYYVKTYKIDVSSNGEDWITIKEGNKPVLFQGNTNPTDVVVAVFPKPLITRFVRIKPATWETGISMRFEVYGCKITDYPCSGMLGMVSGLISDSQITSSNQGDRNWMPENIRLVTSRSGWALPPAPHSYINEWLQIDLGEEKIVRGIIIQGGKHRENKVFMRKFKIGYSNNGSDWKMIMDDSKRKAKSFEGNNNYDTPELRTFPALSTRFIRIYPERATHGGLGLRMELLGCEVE

T3: NRP-1 (control protein in the fluorescence polarization assay) (UniProt O14786 273-586, limits assumed)
T3 construct: also called neuropilin-1
T3 sequence (looked up): T2 sequence (looked up)

B1: T7 phage displaying SMNEVRKR (SEQ ID NO: 192) (peptide)
peptide: SMNEVRKR
notes: also called phage clone selected on NRP-1 b1b2 domain
B2: T7 phage displaying SRLGRMR (SEQ ID NO: 193) (peptide)
peptide: SRLGRMR
notes: as for B1
B3: T7 phage displaying RMRRIDR (SEQ ID NO: 190) (peptide)
peptide: RMRRIDR
notes: as for B1
B4: T7 phage displaying SGVSRDR (SEQ ID NO: 191) (peptide)
peptide: SGVSRDR
notes: as for B1
B5: T7 phage displaying CKRGSRSSC (SEQ ID NO: 181) (peptide)
peptide: CKRGSRSSC
modifications: not fully specified (bridges); cysteine pairing not given here; also: displayed on T7 phage
notes: also called RGXRS-displaying phage
B6: T7 phage displaying CTRGSRSKC (SEQ ID NO: 177) (peptide)
peptide: CTRGSRSKC
modifications: not fully specified (bridges); cysteine pairing not given here; also: displayed on T7 phage
notes: as for B5
B7: T7 phage displaying CQRGTRSRC (SEQ ID NO: 182) (peptide)
peptide: CQRGTRSRC
modifications: not fully specified (bridges); cysteine pairing not given here; also: displayed on T7 phage
notes: as for B5
B8: T7 phage displaying CARGKRSLC (SEQ ID NO: 184) (peptide)
peptide: CARGKRSLC
modifications: not fully specified (bridges); cysteine pairing not given here; also: displayed on T7 phage
notes: as for B5
B9: T7 phage displaying the TT1 peptide CKRGARSTC (SEQ ID NO: 3) (peptide)
peptide: CKRGARSTC
notes: The phage protein it is fused to is not described; also called TT1 phage; TT phage
B10: T7 phage displaying CKRGNRSVC (SEQ ID NO: 178) (peptide)
peptide: CKRGNRSVC
modifications: not fully specified (bridges); cysteine pairing not given here; also: displayed on T7 phage
notes: as for B5
B11: T7 phage displaying GRGGRSRKLAAALE (SEQ ID NO: 161) (peptide)
peptide: GRGGRSRKLAAALE
notes: the C-terminal KLAAALE element is encoded by the phage genomic DNA; also called RGXRS-displaying phage
B12: T7 phage displaying CVRGGRARC (SEQ ID NO: 183) (peptide)
peptide: CVRGGRARC
modifications: not fully specified (bridges); cysteine pairing not given here; also: displayed on T7 phage
notes: carries RGGRA rather than RGXRS
B13: T7 phage displaying CARGARTKC (SEQ ID NO: 176) (peptide)
peptide: CARGARTKC
modifications: not fully specified (bridges); cysteine pairing not given here; also: displayed on T7 phage
notes: carries RGART rather than RGXRS
B14: uPA-treated T7 phage displaying the TT1 peptide (peptide)
peptide: CKRGAR
modifications: not fully specified
notes: not shown: T7 phage capsid (display carrier)
B15: synthetic TT1 Peptide CKRGARSTC (SEQ ID NO: 3), cyclic (peptide)
peptide: CKRGARSTC
modifications: also: cyclic (CycTT1), ring type not given here, used labeled and unlabeled, label and position not given here
notes: Free synthetic peptide used in fluorescence polarization assays; also called CycTT1; cyclic TT1 Peptide

molecular target: T1, recombinant 6x-His-tagged p32 protein …; test: T7 phage clone binding to immobilized p32 (FIG. 3)

Binder | binding result
B1 | no binding
B2 | no binding
B3 | no binding
B4 | no binding

molecular target: T4, BSA (UniProt P02769 25-607); test: T7 phage clone binding to protein-coated magnetic beads
T4 construct: Control protein on beads
T4 sequence (P02769 25-607 limits assumed): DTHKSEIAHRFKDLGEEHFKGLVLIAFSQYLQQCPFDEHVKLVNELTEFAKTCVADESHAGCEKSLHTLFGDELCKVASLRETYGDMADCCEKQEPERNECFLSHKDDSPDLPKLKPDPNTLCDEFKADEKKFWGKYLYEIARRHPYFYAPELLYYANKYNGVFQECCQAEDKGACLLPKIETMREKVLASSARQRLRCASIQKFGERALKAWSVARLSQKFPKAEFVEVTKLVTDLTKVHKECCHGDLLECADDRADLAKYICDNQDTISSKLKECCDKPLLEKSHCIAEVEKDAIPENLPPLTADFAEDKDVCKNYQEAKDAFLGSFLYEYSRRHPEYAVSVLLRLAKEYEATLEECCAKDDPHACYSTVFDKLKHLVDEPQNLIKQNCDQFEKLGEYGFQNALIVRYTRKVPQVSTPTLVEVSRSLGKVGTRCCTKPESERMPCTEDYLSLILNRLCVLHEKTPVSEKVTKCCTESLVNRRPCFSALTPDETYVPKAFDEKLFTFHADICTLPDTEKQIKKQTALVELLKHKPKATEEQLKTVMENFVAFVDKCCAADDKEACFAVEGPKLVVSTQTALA

Binder | binding result
B5 | no binding
B6 | no binding
B7 | no binding
RKRGGRS (also called RGXRS-displaying phage) [T7 phage displaying RKRGGRS (SEQ ID NO: 166)] | no binding
B8 | no binding
B9 | no binding
B10 | no binding
B11 | no binding

molecular target: T2, ligand-binding b1b2 domain of the cell …; test: as above

Binder | binding result
B12 | no binding
B13 | no binding
B5 | no binding
B6 | no binding
B7 | no binding
RKRGGRS (also called RGXRS-displaying phage) [T7 phage displaying RKRGGRS (SEQ ID NO: 166)] | no binding
B8 | no binding
B9 | no binding
B10 | no binding
B11 | no binding

molecular target: T1, recombinant 6x-His-tagged p32 protein …; test: T7 phage binding to immobilized p32; reference LyP-1-displaying phage

Binder | fold stronger phage binding than the LyP-1 peptide
B9 | ~15 fold

molecular target: T2, ligand-binding b1b2 domain of the cell …; test: uPA-treated T7 phage binding to NRP-1 b1b2; reference untreated phage

Binder | fold enhancement of binding
B14 | 180 fold

molecular target: T3, NRP-1 (control protein in the …); test: fluorescence polarization assay with synthetic peptide, NRP-1 as control protein

Binder | binding result
B15 | no binding
